Data: patent US12281340B2, “Method of producing N-acyl-amino group-containing compound” (AJINOMOTO CO., INC., priority 2018, dated 2025)

Legend:
Type in all cases: biochemical
[1] = Quantification of produced N-acylamino acid (UV 210 nm) using purified acylamino acid synthetase; conditions: 5 mM sodium fatty acid, 200 μg/mL enzyme, 25° C., 24 hours
Method: 0.1 mL of a reaction solution containing 50 mM Tris-HCl, 5 mM amino acid, 5 mM sodium fatty acid, 10 mM ATP, 10 mM MgCl2, 1 mM DTT, 200 μg/mL of the purified enzyme, pH 8.0 was incubated at 25° C. for 24 hours. As amino acids, L-Asp was used in AtGH3-6, OsGH3-8, AtGH3-5, AtGH3-12, and Gly or L-Ala was used in CfHP. After completion of the reaction, 0.4 mL of the reaction stop solution (1% (v/v) phosphoric acid, 75% (v/v) methanol) was added, and the mixture was filtrated through the filter followed by being subjected to the UPLC-MS analysis to quantify the produced N-acylamino acid by detection at UV 210 nm. The condition for the UPLC-MS analysis is as descried in Example 2. As a result of the analysis, 3.9 mM of Nα-capryloyl-L-aspartic acid, 4.5 mM of Nα-caprinoyl-L-aspartic acid and 2.2 mM of Nα-lauroyl-L-aspartic acid were detected when AtGH3-6 was used; 4.3 mM of Nα-capryloyl-L-aspartic acid, 4.6 mM of Nα-caprinoyl-L-aspartic acid and 3.5 mM of Nα-lauroyl-L-aspartic acid were detected when OsGH3-8 was used; 4.1 mM of Nα-capryloyl-L-aspartic acid, 4.6 mM of Nα-caprinoyl-L-aspartic acid and 2.5 mM of Nα-lauroyl-L-aspartic acid were detected when AtGH3-5 was used; 1.6 mM of Nα-capryloyl-L-aspartic acid, 0.6 mM of Nα-caprinoyl-L-aspartic acid and 0.2 mM of Nα-lauroyl-L-aspartic acid were detected when AtGH3-12 was used; 4.5 mM of Nα-capryloylglycine, 4.6 mM of Nα-caprinoylglycine, 0.1 mM of Nα-lauroylglycine, 3.1 mM of Nα-capryloyl-L-alanine, 3.6 mM of Nα-caprinoyl-L-alanine and 0.4 mM of Nα-lauroyl-L-alanine were detected when CfHP was used.

[2] = Synthesis of N-caprinoyl-amino acid derivative, N-caprinoyl-D-amino acid and N-caprinoyl-peptide using purified acylamino acid synthetase, UPLC-MS detection; parameters: key: +: Detected; −: Not detected; conditions: +ATP
Method in brief: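 Purified enzyme (50 μg/mL) was incubated with 5 mM sodium caprate, 5 mM amino acid derivative, D-amino acid or peptide, 10 mM ATP, 10 mM MgCl2 and 1 mM DTT in 50 mM Tris-HCl, pH 8.0, for 24 h at 25 °C. After acidic methanol stop, UPLC-MS looked for the mass of the N-caprinoyl product.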

[3] = Analysis of ATP dependency of acylamino acid synthetase; conditions: for signal of molecular weight corresponding to N-caprinoyl amino acid: in the absence of ATP; for N-caprinoylamino acid detected: in the presence of ATP (10 mM), UV 210 nm
Method: 0.25 mL of a reaction solution containing 50 mM Tris-HCl, 5 mM amino acid, 5 mM sodium caprate, 10 mM or 0 mM ATP, 10 mM MgCl2, 1 mM DTT, 50 μg of the purified enzyme, pH 8.0 was incubated at 25° C. for 24 hours. As the amino acid, L-Asp and Gly were used in AtGH3-6 and CfHP, respectively. After completion of the reaction, 0.8 mL of the reaction stop solution (1% (v/v) phosphoric acid, 75% (v/v) methanol) was added to 0.2 mL of the reaction solution, and the mixture was filtrated through the filter followed by being subjected to the UPLC-MS analysis to quantify a produced N-caprinoylamino acid by detection at UV 210 nm. The condition for the UPLC-MS analysis is as described in Example 2. As a result of the analysis, 3.8 mM and […] of the N-caprinoylamino acids were detected in AtGH3-6 and CfHP, respectively in the presence of ATP. However, in the absence of ATP, no signal of the molecular weight corresponding to the N-caprinoylamino acid was detected when any of AtGH3-6 and CfHP was used.

[4] = substrates Carnosine and sodium caprate
[5] = substrates D-Ala and sodium caprate
[6] = substrates D-Asp and sodium caprate
[7] = substrates D-Cys and sodium caprate
[8] = substrates D-Glu and sodium caprate
[9] = substrates D-Ile and sodium caprate
[10] = substrates D-Lys and sodium caprate
[11] = substrates L-Asp-L-Phe and sodium caprate
[12] = substrates L-Gly-L-Gly and sodium caprate
[13] = substrates Sarcosine and sodium caprate
[14] = substrates Taurine and sodium caprate

Molecule	signal of molecular weight corresponding to N-caprinoyl compound [2, 4]	signal of molecular weight corresponding to N-caprinoyl compound [2, 5]	signal of molecular weight corresponding to N-caprinoyl compound [2, 6]	signal of molecular weight corresponding to N-caprinoyl compound [2, 7]	signal of molecular weight corresponding to N-caprinoyl compound [2, 8]	signal of molecular weight corresponding to N-caprinoyl compound [2, 9]	signal of molecular weight corresponding to N-caprinoyl compound [2, 10]	signal of molecular weight corresponding to N-caprinoyl compound [2, 11]	signal of molecular weight corresponding to N-caprinoyl compound [2, 12]	signal of molecular weight corresponding to N-caprinoyl compound [2, 13]	signal of molecular weight corresponding to N-caprinoyl compound [2, 14]	further results
AtGH3-6: indole-3-acetic acid-amido synthetase GH3.6 from Arabidopsis thaliana, expressed in E. coli with N-terminal His-tag (protein, listed as Arabidopsis thaliana, N-terminal His-tag, indole-3-acetic acid-amido synthetase GH3.6 from Arabidopsis thaliana, expressed in E. coli with N-terminal His-tag) MPEAPKIAALEVSDESLAEKNKNKLQFIEDVTTNADDVQRRVLEEILSRNADVEYLKRHGLEGRTDRETFKHIMPVVTYEDIQPEINRIANGDKSQVLCSNPISEFLTSSGTSGGERKLMPTIEEELDRRSLLYSLLMPVMDQFVPGLDKGKGMYFLFIKSESKTPGGLPARPVLTSYYKSSHFKNRPYDPYTNYTSPNQTILCSDSYQSMYSQMLCGLCQHKEVLRVGAVFASGFIRAIKFLEKHWPELARDIRTGTLSSEITDSSVREAVGEILKPDPKLADFVESECRKTSWQGIITRLWPNTKYVDVIVTGTMSQYIPTLDYYSNGLPLVCTMYASSECYFGVNLRPLCKPSEVSYTLIPNMAYFEFLPVHRNSGVTSSISLPKALTEKEQQELVDLVDVKLGQEYELVVTTYAGLYRYRVGDVLSVAGFKNNAPQFSFICRKNVVLSIDSDKTDEVELQNAVKNAVTHLVPFDASLSEYTSYADTSSIPGHYVLFWELCLNGNTPIPPSVFEDCCLTIEESLNSVYRQGRVSDKSIGPLEIKMVESGTFDKLMDYAISLGASINQYKTPRCVKFAPIIELLNSRVVDSYFSPKCPKWSPGHKQWGSN	+	+	+	+	+	+	+	+	+	+	+	Nα-caprinoyl-L-aspartic acid detected ([1]; 5 mM L-Asp): 4.5 mM; Nα-capryloyl-L-aspartic acid detected ([1]; 5 mM L-Asp): 3.9 mM; Nα-lauroyl-L-aspartic acid detected ([1]; 5 mM L-Asp): 2.2 mM; signal of molecular weight corresponding to N-caprinoyl amino acid ([3]; L-Asp and sodium caprate): no signal; N-caprinoylamino acid detected ([3]; L-Asp and sodium caprate): 3.8 mM
CfHP: hypothetical protein from Cystobacter fuscus (GH3 protein), His-tagged (protein, listed as Cystobacter fuscus, His-tag, hypothetical protein from Cystobacter fuscus (GH3 protein), His-tagged) MQAAGRRDKQRFIEQTRHVARVNVDTLRAILQHNRDTDFGRRHGFASLRTVEDFQRALPVSTYEPFRPYMERIARGEQNVLTADRVEYLGITSGTTGQRKLLPVSRPHLENMRRTMMIGRAVVTEKVPAARRPSRGMILMNAVLRERSEGGLLTGALTAISTHSMGRAASFAFTSPPEAFRLRKHADALYLHLLFGLRERELGTLMAPFASGLLDMVHLLERRGADLVDDIARGVLRPELDLEPEQRRLLQSRLLPDPERAREVSQALEQGPHGLLRRLWPRLAYVSSITGASFSLYTRQLTPYLEGVPLSAASYVSTEGILGVPLELEQAVYCLMVGMAFFEFIPERELDAESPTTLLPEQLVEGEAYEVVLTTQAGLYRYRLGDVVRIVGRYHEAPLMEFLYRRGALLNLMGEKTSEHAARLALEQALATEGLLPADYSVVEETETLPGRYALFVELQEGARPQGAPEQLSRALEEALCRTNPFYEVIRRSERLGAAQLHRVEPGTFQALRDVLVQRGASPTQVKVPRVVRDAELQGLLRQRRVTG	+	+	+	+	+	+	+	+	+	+	+	Nα-caprinoylglycine detected ([1]; 5 mM Gly): 4.6 mM; Nα-capryloylglycine detected ([1]; 5 mM Gly): 4.5 mM; Nα-lauroylglycine detected ([1]; 5 mM Gly): 0.1 mM; Nα-caprinoyl-L-alanine detected ([1]; 5 mM L-Ala): 3.6 mM; Nα-capryloyl-L-alanine detected ([1]; 5 mM L-Ala): 3.1 mM; Nα-lauroyl-L-alanine detected ([1]; 5 mM L-Ala): 0.4 mM; signal of molecular weight corresponding to N-caprinoyl amino acid ([3]; Gly and sodium caprate): no signal; N-caprinoylamino acid detected ([3]; Gly and sodium caprate): 5.2 mM
